From patent publication US20190016826A1 (Genentech, published 2019) come the findings set out here.

For orientation: EC50 means the concentration giving half of the maximal effect. A low value points to a more potent agent. Broadly, the Kd is the concentration at which binding is half-saturated. A lower Kd goes with tighter binding. One may read the koff as the first-order rate constant of dissociation. The low end stands for slow dissociation, the high end for fast dissociation. Broadly, the kon is a measure of how fast the partners come together.

Numbering of substitutions follows the chain as printed.

One experiment deals with T1, K191A.
T1 construct: also called HuHtrA1_PD(K191A)
Description: ELISA on plate-coated HuHtrA1_PD mutants (Example 7); column head on the sheet reads YW505.94 Fab, legend paragraph 70 says IgG94. The procedure:
(§1) The mutants were expressed in E. coli and the trimers purified by size exclusion chromatography as described in Example 2. Binding was determined using an ELISA assay, which was conducted using a MAXISORP™ microtiter plate coated with HuHtrA1_PD mutants at 2 μg/ml in PBS for 1 h, followed by blocking with PBST buffer (0.5% BSA and 0.05% Tween 20 in PBS) for 1 h at room temperature. […] The plates were washed with PBT buffer (0.05% Tween 20 in PBS), and HRP-conjugated goat anti-human IgG (H+L) (Invitrogen) was added (1:5000 in PBST buffer) and incubated for 1 h. The plates were washed with PBT buffer and developed by adding tetramethylbenzidine substrate (Kirkegaard and Perry Laboratories, Gaithersburg, Md.). The absorbance at 450 nm was plotted as a function of antibody concentration in solution to determine EC₅₀ values.
(§2) In trypsin-like serine proteases these loops are known to be part of the specificity determining region that interacts with substrates.

The target of another experiment is T2, HuHtrA1_PD(H220A) (human, UniProt F1N152 168-386 (bovine entry)).
T2 construct: Alanine mutant of HuHtrA1_PD; also called HuHtrA1 mutant H220A; not shown: thrombin cleavage site
T2 chain: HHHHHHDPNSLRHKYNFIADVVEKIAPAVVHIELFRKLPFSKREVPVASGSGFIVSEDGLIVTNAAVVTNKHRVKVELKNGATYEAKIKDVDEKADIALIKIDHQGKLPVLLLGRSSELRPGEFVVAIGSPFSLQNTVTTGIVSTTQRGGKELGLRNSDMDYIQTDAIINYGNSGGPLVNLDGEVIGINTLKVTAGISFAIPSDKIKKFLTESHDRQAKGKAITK
The description is as above. The procedure:
as §1, §2

The target in experiment [1] is T3, HuHtrA1_PD(S328A), catalytically inactive protease domain of human HtrA1 (human, UniProt F1N152 168-386 (bovine entry)).
T3 construct: Trimer; not shown: thrombin cleavage site
T3 chain: T2 chain with A66H, S174A
Described as above. How it is done:
as §1, §2

The target of a further experiment is T4, D250A.
T4 construct: also called HuHtrA1_PD(D250A)
The experiment is described as above. How it is done:
as §1, §2

In a further experiment the target is T5, HuHtrA1_PD(E247A) (human, UniProt F1N152 168-386 (bovine entry)).
T5 construct: Alanine mutant of HuHtrA1_PD; also called HuHtrA1 mutant E247A; not shown: thrombin cleavage site
T5 chain: T2 chain with A66H, E93A
The experiment is described as above. The procedure: as §1, §2

A further experiment has as its target T6, K248A.
T6 construct: also called HuHtrA1_PD(K248A)
The experiment is described as above. The procedure:
as §1, §2

Experiment [2] has as its target Protease domain of murine HtrA1 (MuHtrA1_PD) (G156-S367) (murine, UniProt Q9R118 156-367). Description: SPR (BIAcore T100), single-cycle kinetics, biotinylated MuHtrA1_PD captured on streptavidin, Fab in solution. How it is done: (§3) Briefly, series S sensor chip CM5 was activated with EDC and NHS reagents according to the supplier's instructions, and streptavidin (Pierce) was coupled to achieve approximately 2000 response units (RU), followed by blocking unreacted groups with 1M ethanolamine.
(§4) The sensorgrams were recorded and evaluated by BIAcore™ T100 Evaluation Software (version 2.0) after subtraction of reference cell signal. Association rates (kₒₙ) and dissociation rates (koff) were calculated using a simple one-to-one Langmuir binding model. The equilibrium dissociation constant (KD) was calculated as the ratio […] (see Table 1 below).
For orientation: Surface plasmon resonance follows binding to a sensor surface in real time, without labels.

In experiment [3] the target is T7, Protease domain of human HtrA1 (HuHtrA1_PD), residues D161-K379 (human, UniProt F1N152 168-386 (bovine entry)).
T7 construct: Expressed in E. coli; not shown: thrombin cleavage site between tag and D161
Description: SPR (BIAcore T100), single-cycle kinetics, biotinylated HuHtrA1_PD captured on streptavidin, Fab in solution. The procedure: as §3, §4

Protease domain of murine HtrA1 (MuHtrA1_PD) (G156-S367), sequence (Q9R118 other isoform, or with tags, fused parts or gaps): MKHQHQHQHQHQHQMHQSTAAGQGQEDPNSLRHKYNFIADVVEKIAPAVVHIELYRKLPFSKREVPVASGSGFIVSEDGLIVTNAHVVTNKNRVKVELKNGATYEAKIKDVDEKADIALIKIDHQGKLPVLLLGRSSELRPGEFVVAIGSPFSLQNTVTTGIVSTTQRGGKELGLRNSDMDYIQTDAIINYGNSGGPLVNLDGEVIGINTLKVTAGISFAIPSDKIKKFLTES

B1: Fab94 (anti-HtrA1 antibody YW505.94, Fab format) (Fab, V domains shown)
VH: EVQLVESGGGLVQPGGSLRLSCAASGFNISGYYIHWVRQAPGKGLEWVGWIDPYGGDTNYADSVKGRFTISADTSKNTAYLQMNSLRAEDTAVYYCARGTFLTSWGHYFDYWGQGT
VL: DIQMTQSPSSLSASVGDRVTITCRASQDVSTAVAWYQQKPGKAPKLLIYSASFLYSGVPSRFSGSGSGTDFTLTISSLQPEDFATYYCQQSYTTPPTFGQGTKVEIKR
Take B1: the EC50 came to 14 nM with K191A; 32 nM with HuHtrA1_PD(H220A); 2.3 nM in experiment [1]; 9.4 nM with D250A; 41.7 nM with HuHtrA1_PD(E247A); 196 nM with K248A. The “Relative to WT EC50 Fold Decrease” value with K191A is 2.5 fold; with HuHtrA1_PD(H220A), 5.7 fold; in experiment [1], 0.4 fold; with D250A, 1.7 fold; with HuHtrA1_PD(E247A), 7.4 fold; with K248A, 35 fold. The Kd was 28.9 nM in experiment [2] and 31.1 nM in experiment [3]. The koff turned out to be 0.0129 s⁻¹ in experiment [2] and 0.0109 s⁻¹ in experiment [3]. In addition, the kon stood at 450000 M⁻¹ s⁻¹ in experiment [2] and 350000 M⁻¹ s⁻¹ in experiment [3].
